Assay results from the supplement of paper PMC12636428.

Tested on: Saccharomyces cerevisiae
Experiment: transcriptional activation domain activity (GFP:mCherry ratio, weighted mean of sorted bins, harmonized to initial dataset scale) (arbitrary fluorescence ratio units); higher = stronger transcriptional activation
Conditions: beta-estradiol 1 µM; induction time 4 h
In short: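 Protein tiles carrying barcodes and fused to an estradiol-inducible synthetic transcription factor were placed at the URA3 locus of yeast diploids with a GFP reporter. Following 4 hours at 30 °C in SC with 1 uM beta-estradiol, cells were sorted into 8 GFP:mCherry bins, barcodes were sequenced, and tiles with fewer than 50 reads were discarded. Activation activity is given as the read-weighted mean of bin median fluorescence, averaged across barcodes and linearly mapped to the initial dataset scale.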

KEEEDRKRAEEEEERERERRRQDEVDRRRRMQDEAKQREAEAKKQAARAAALA
transcriptional activation domain activity: 35500

AAAAAAAAETAADEKPAEEAGEPPAAEPEAAEPAKEEAAPAEEAAAAEAVPAP
transcriptional activation domain activity: 54300

MRRLPTAMVSCFGVYAVSHNLSLPFVSSLFPCFIQFCARIILFSLVGYSFWSL
transcriptional activation domain activity: 74500

GLMGALGFRMLFGVPCLPFFALHWFLWLVNDYILYCVLVQTNRISSIHFLRAW
transcriptional activation domain activity: 41200

SGWQRHIILHESLLNRYEHVIIVFVKSHLPSAGLLLKQFCVSGRILARMWRNG
transcriptional activation domain activity: 47800

WLLQYMMLLGTLRRQSDKLVVKVGWYMANYLVPGIYVFQPRIVMKVLLLILRQ
transcriptional activation domain activity: 44500

GESDDEGGGGRKRKKAKVEPAPKVKVERKPAAPVQEGEKKKRGRPRKVAPLPA
transcriptional activation domain activity: 24400

AEAEKMDVDPAVSTAETEVKQESPAPAAATSVSTPEVKVTPSSAHPSLPAKPL
transcriptional activation domain activity: 18400

SIAISPESAVANLGTDTGLPSDVLDTVSKIGNSPNVFDDDLFSNLLWFDQNFA
transcriptional activation domain activity: 142000

MPTNFTKEGRTCTVTYKIQVHMIRPAVFIDFITLWIRQTFGMIVMVVTAELPR
transcriptional activation domain activity: 47800

FPIRIYSYVKLKWHLFLFDYCYFASMLNLIYLWILPNSTLLFTICYCAAHGPL
transcriptional activation domain activity: 61800

SGGKTMVSGSFAGESGRLQGSGPFGRGGGRESREQAYDNGRAKIARLAHGLRL
transcriptional activation domain activity: 22400

TDAAADAPKEDEVKEGEEKMETESTEEKKESESAEEKPAEETAASADTEMAEA
transcriptional activation domain activity: 25600

REAAGRERGERGRDNARGAGEREQPGRVRARLRGGRGKAREGEEGSCVRSAAP
transcriptional activation domain activity: 22900

MAETTTSDSGASSSTALQRGKACLRCRKRKMRCDGQKPACSQCVKARKTDACE
transcriptional activation domain activity: 34100

MGCKLIILFSSAMLFLFFSVLFLLLPLFFLSPTTCFLSFWLRLWLLLMVHWGR
transcriptional activation domain activity: 47600

TSAVLDLGDERDVADYDVISLAEDYVGRDNRKGQKRAMRLDESGPRMEIKVVK
transcriptional activation domain activity: 45400

MFSYFVFLLTIVTFFHLIISFCFVFRCHYIVLLLLLQNVFIFCLFAHHCYIHV
transcriptional activation domain activity: 31400

YSRLILSVIIQFYQRCSDRFQDVVSRNSLDLTDTRLLVSARWAQRENLVVCLS
transcriptional activation domain activity: 49600

GDEEREQRKKHKKRKDRGSDDEDRHHKHKHKKDKHREKGTKDSKKHRGNEPSS
transcriptional activation domain activity: 64300

SLIGIGITILQQLSEISFLPMTTFNISRCLWRLSLLTILACVNFGPSIYIFWF
transcriptional activation domain activity: 51500

DSDTRRRGGEGGHRMRSSIACTRCRRSKIKCENQGVGSQCKACHGQGRECTYP
transcriptional activation domain activity: 31300

ALHLVWSGSTIYVKPLPACLVDFDFFMRFISPFPHIYEDACGFLLTYARLIVH
transcriptional activation domain activity: 89800

GLCRSGELLLPGAQYHRNPAVRKAWPGIFKWTRRNAMDVIATVWFWLTRADGL
transcriptional activation domain activity: 51100

SSGGEKGGAKETEKTPKWYVDGIRYGRATDMKLVKHLISLRVHLSTASLVWIE
transcriptional activation domain activity: 86800

MFCWLCYFLPFISFGFPLIYPSSVGILLWIVISGLCVFIFTLKMFLVFLLLFF
transcriptional activation domain activity: 46100

KLGFQVLVQVILVIWYKPDKIPSAVNVDKEIKKGEPVDNKARVLVECVLDVFQ
transcriptional activation domain activity: 51700

MLRLLAMLAKYVAFLLVLLNIRSFPLVWHFRLFRAFIQLGLSLQWHKLTHFYL
transcriptional activation domain activity: 60600

MRAKNLTWTTLIYFSTVLWFVGDLVTNNHVRLVGVWSECKLWILWFRVFFVYV
transcriptional activation domain activity: 84300

AFMVSRMVILPFVYSLPVLYDILRPFTAHFLRPKFTLTFLWTHFDLITRVFFL
transcriptional activation domain activity: 53400

IRGKTLPKYFPRFHMWGHIDADIQLMSKGLITPVCIEMVYGMHPFVVYKLFMF
transcriptional activation domain activity: 62100

EKTRRNREKREKKKNKGKGGKGGGGGGNGGGGGGSGNAATVTAAAENGAGKKE
transcriptional activation domain activity: 30900

HSQYMGYFGGYLVCHLWFTHRFVGMLRLGVVDVVWRFCVYLGLVGWSLGVCYS
transcriptional activation domain activity: 72500

LPKDANLCFGKDFLAMYFYCTAVPTLFMFMVSERLYNALMQLAVFLLLCILHL
transcriptional activation domain activity: 65000

CRGIYTLHTTNLMIVDDIVYLWRYDRQNVIQSTGLNFITDMPYFMALLAVFQR
transcriptional activation domain activity: 48500

MKKLEKLLLSNDLTSQKKAFLVLCRMHYLTSSLLSSCVVVLVVGWSSIQKNTT
transcriptional activation domain activity: 63400

VPRHLFEKSTLKSLFYVGRHLGLTAAFYVFATHIDRIAWELCARFGYGHRIRG
transcriptional activation domain activity: 20700

GNAVYMSMDLPDTTFALSKLLNYIEWNRAKLFSFAFFVCVWTYFRHYLNLVIL
transcriptional activation domain activity: 46000

VFTDSLFQIVLVGRLTGFFYSFSFLFFFLSFFFFFSFIPFFPPFLYGLFFFLF
transcriptional activation domain activity: 67600

MCINMYFWKVFFMWTLIFFGLSYIPLSFPGMSYFFLLQHEIFLIILGNHFLRF
transcriptional activation domain activity: 42000

TLSGVLMLFWQPNGQRLIGNATLWCWIRPGLEFYRIVLNYGWIWIILGVNICT
transcriptional activation domain activity: 73100

PSASLSFVSFFFFFLFLPLTFSSSYFFFLPFSSFPLFSSLSSTHIWSFLLSPL
transcriptional activation domain activity: 39800

EKEKERKHKHRSRRDRSRSRDSDGGRDRRHRHRRDRSRSRDAHDDRERRHRHS
transcriptional activation domain activity: 19000

TDDYFQTVLMSGLLRVLKDPASSGQHHTVIEAIMAIFKTWIMLAFAAVTRSSV
transcriptional activation domain activity: 56900

MLSLFSETGCTFLLVGLSIVVGVEKGSFLFYFVYLFTLYLYCGPILLGKLIFM
transcriptional activation domain activity: 49800

MADAITESTAKLQLDEETGEMVSKGELKKRLAKRAKKAAQAKAKAEAPAPLAT
transcriptional activation domain activity: 36300

WLSHSKKKTCDVCKHPYSFTKVYAEDMPSRLPLVLLLRKLIEQVFYTALFCIR
transcriptional activation domain activity: 54100

ADMILGFFFKNFVWTFILFWYQLFCQFNGTMVFDYSLVTLYNLVFTSLPIAFL
transcriptional activation domain activity: 65600

QLECFGSTSLGWKSLKLVLRAHALCLLAAAVKEGLFEYSYVRLLADLCLSLEC
transcriptional activation domain activity: 56200

MLLNLRGHIDEHLQYIIATSFKLMDTAETFALRLANLEVLINTVLYNAAAALH
transcriptional activation domain activity: 48600

RWGLGRWWVPFQLFVIFWDLDNWPVFGLRPWVFEFMEGPLEYVLSFLVLFTAK
transcriptional activation domain activity: 67500

SRVSLTVFRFSYVWLSLIFAIPLLCAVLIELYFLMPLHAWMGPSEPHVVHLIQ
transcriptional activation domain activity: 46800

IIEEQSGEDDDLPGHKKQRKESLAELLASEPADGTSPRRKSGQIKRTVPAVVL
transcriptional activation domain activity: < 6570

AVAALVGVGFGLSGYFLVCNVYPILSSADSKSLCLLVLVLLALSFKVLFFNYY
transcriptional activation domain activity: 48300

SGDPDEDGNGHGTHCSGTVAGKKYGVAKKANVYAVKVLRSNGSGSMSDVVKGV
transcriptional activation domain activity: 19600

LGLDSGYLWSGILYNVSVTVSLYSLGMFWVCMSKDLQPFRPVPKFLCIKLIIF
transcriptional activation domain activity: 62400

MPYKKGHFVWILVYAIAVQSGNVMKKRVGVVTLVLKMPSRKILPPWSTLVCKT
transcriptional activation domain activity: 47300

ILNVTVRLNFLTFVLQYLMDTDYLSYYFTPLVSFWFLAIWIIMYAGHTWNKIP
transcriptional activation domain activity: 67300

PDHIHHHSNNMNNEDNDNNNGSNNKVSNDSKLDFVTDDLEYHLANTHPDDTND
transcriptional activation domain activity: 47000

RLYLKGVVLTLWSLDTIHLICVCHALYWYLITNFLNAFVLEKLAWYRGWCPSH
transcriptional activation domain activity: 68600

MPLMIIFRFTIFYFYFVSIFFFLFLLLVGEFFFLLSFFFFLSFVFFLFTISYF
transcriptional activation domain activity: 37100

CKAHCGYILGHINIFQPINWIFVISSKVFPIDYVLYLLLILFFFSASVVGIAT
transcriptional activation domain activity: 51900

GDLGFRDSIVTKVLQDARSNFLVSVSRLLRPIFVLMKKWVRLAVERLNICHSR
transcriptional activation domain activity: 33300

KMVHRPLLWYFTVFLVDMYTALRLFRLGFRHYAPRTQTRSWFRVFPPRPFTWV
transcriptional activation domain activity: 71700

MMFFFFFLVSFIYFWIGAPVGFFILKIKFVMLDVQSLHLAIFLICPHLCFYVM
transcriptional activation domain activity: 54400

SSDYSIAQFRFLLKLLLVHGRWNYVRICKYILGTFYKEFMFYLTQLIYQRNTM
transcriptional activation domain activity: 39600

MVILLLFFVFRVNFVIVLAVSIPRQASFHVIHRFTYLLRRLQDMLNTTHRYAA
transcriptional activation domain activity: 40500

YFYMRLISCLGLIAHSPMLWATGHNSARHELIQKMDFFPKRIGYLLSRLCVLI
transcriptional activation domain activity: 51600

KVDNGRKVDNGGKVDGRKVDNGGKVDDGRSVNDRGRADKGGGVVKGGRLVEGG
transcriptional activation domain activity: 24900

LYSVCSILLLVVRLFKQLPRQYCSWRVVYTQKLWISITICFTLMRFSFSRDHT
transcriptional activation domain activity: 51100

CEPLRKATRGLVTTVVNGNDVVPSLSIGVVRDFHSVALSFKEDTGGVLGEVRK
transcriptional activation domain activity: 39100

RKEAMDFDAELKRRNTHLYCAIIDLEKEMQLVAYLVCACLKKVTFLHKVCVLE
transcriptional activation domain activity: 67900

LLQMDKAGFVKDEITDVFALVVCRNLSLFHICAYILNVYRNYIMMVLEALRAQ
transcriptional activation domain activity: 64800

MFLPFSLSINHLPSLLLQPFILSLILLLFFLCLLHRLFPFLLQFFPFLFQFLS
transcriptional activation domain activity: 50100

MFVGGWVMCLLFSKYSIYHLLAICALLFLLEYAFFFLLGIIHLLLLPTFFPFF
transcriptional activation domain activity: 37800

IMYTSHHDPKHCFEETRDGTLKVHVIGDWLPRGIFGKMYILFAILRQLVLVLW
transcriptional activation domain activity: 74900

MLFTIVPLLCILHHIVLHPIFPSLFYTHIHLCTFFFFFNSVFFFFMFYILVFN
transcriptional activation domain activity: 50200

WSVLLCFAVSFFSFSFLSFWAVTALCYGFVFVFFILLCVLCCFSFAFSHVYLF
transcriptional activation domain activity: 49600

GGRGGGRGGRGGGGRGGRDRDGGRGGGRGRGGRGGGEGEEVVGTEGKDGGAEA
transcriptional activation domain activity: 18300

LLLLYGLTWAFNLIACMLTSTNNGNMVSCILTNFNCIIVYTITKIILYLYFVE
transcriptional activation domain activity: 43200

MILFFFAHRGLFLVYSASFCLCCDCLYFFLVYTFFFTLHNPFFLVPLFFSIIL
transcriptional activation domain activity: 62900

RGVEKLKVEVGCFFWILGEGMIADERLKKFMKDMAHARHVVSSPDVCPNIITY
transcriptional activation domain activity: 40800

GKKGPGGRKGPGGRKGPGGRGGRAGGPKGRGGKGGKGMRPGAGAPPPPPPIAA
transcriptional activation domain activity: 52600
